Assay results as given in EP4631972A1, “SITE-SPECIFIC COUPLED PEGYLATED INTERLEUKIN-2 MUTANT WITH RECEPTOR AFFINITY PREFERENCE AND USE THEREOF” (priority 2022, dated 2024).
Where two headings read alike, the source gives them in different places. Side chains are listed from the residue outwards. maleimide = maleimide group on PEG that conjugates to a cysteine thiol

Legend:
[1] = target: T1, IL-2Rαβγ triple receptor (UniProt P01589 22-272; P14784 27-551; P31785 23-369); experiment: cell-based or functional assay
T1 sequence (looked up) 1: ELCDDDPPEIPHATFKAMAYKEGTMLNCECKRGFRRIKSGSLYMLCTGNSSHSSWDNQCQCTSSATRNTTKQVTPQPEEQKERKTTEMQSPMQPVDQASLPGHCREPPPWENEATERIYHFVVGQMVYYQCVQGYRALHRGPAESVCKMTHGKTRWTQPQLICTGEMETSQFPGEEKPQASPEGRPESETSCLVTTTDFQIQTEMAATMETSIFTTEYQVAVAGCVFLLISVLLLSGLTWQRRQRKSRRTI
T1 sequence (looked up) 2: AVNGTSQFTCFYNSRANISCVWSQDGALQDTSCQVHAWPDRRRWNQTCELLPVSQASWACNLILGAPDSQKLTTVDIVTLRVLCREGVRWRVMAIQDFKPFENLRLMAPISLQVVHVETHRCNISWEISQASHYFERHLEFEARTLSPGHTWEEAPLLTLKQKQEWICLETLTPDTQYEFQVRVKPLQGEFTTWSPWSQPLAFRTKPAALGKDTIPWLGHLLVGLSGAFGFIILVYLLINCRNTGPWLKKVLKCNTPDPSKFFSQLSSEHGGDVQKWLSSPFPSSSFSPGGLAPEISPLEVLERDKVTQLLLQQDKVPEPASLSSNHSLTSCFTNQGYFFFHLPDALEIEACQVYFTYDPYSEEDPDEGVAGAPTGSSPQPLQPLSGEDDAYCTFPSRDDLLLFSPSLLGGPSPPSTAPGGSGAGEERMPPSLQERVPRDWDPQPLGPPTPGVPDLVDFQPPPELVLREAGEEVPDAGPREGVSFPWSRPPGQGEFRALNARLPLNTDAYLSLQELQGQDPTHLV
T1 sequence (looked up) 3: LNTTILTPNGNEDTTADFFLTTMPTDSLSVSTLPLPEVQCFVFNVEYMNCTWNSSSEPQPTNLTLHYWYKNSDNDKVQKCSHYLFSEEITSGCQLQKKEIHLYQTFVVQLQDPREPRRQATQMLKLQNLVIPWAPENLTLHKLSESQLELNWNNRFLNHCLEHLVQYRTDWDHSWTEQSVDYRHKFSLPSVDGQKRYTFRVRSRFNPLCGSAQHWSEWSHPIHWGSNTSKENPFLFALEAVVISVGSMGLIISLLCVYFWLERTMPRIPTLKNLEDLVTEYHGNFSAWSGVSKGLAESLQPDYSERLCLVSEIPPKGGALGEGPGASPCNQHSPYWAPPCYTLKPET

[2] = test system: Treg cells; experiment: P-STAT5 activation in Treg cells of human PBMCs (flow cytometry); type: cell-based; details: P-STAT5 MFI in CD3+/CD4+/CD25+ cells of human PBMCs, 30 min stimulation
Protocol: In the example, the activation effect of each mutant prepared in Example 6 on P-STAT5 in different cell subsets (Tregs, CD8+T cells, NK cells) from human PBMCs (Miaoshun Biotechnology) was detected.
Human PBMC cells were thawed and resuspended to 1.5×10^6 cells/ml in RPMI1640 medium containing 10% FBS. 100 µl was added to each well of a V-bottom 96-well culture plate. Each IL-2 mutant prepared in Example 6 was diluted 10-fold in series: 1000 nM was used as the working concentration for the first well, and then 100 µl/well of each serial dilution was added to each cultured cell, stimulated at 37°C for 30 min, and the reaction was terminated on ice. The cells were treated with a commercial fixative and permeabilization agent (BD biosciences 558049 & 558050), and stained with antibodies against CD3, CD4, CD25, and CD8 according to conventional methods. P-STAT5 antibody staining was also performed (Table 7) to detect the mean fluorescence intensity (MFI) of P-STAT5 in CD3+/CD4+/CD25+ (Treg cells) and CD8+/CD3+ cells ([…]) by flow cytometry.

[3] = Pharmacokinetic study in mice, single administration, plasma concentration by ELISA; details: 1 mg/kg s.c. single administration
Protocol: Balb/c mice were purchased, with 4 mice in each group. Each IL-2 mutant to be tested was administered subcutaneously once at a dose of 1 mg/kg. Blood was collected from the orbit at different time points after administration, and the plasma was separated and the plasma drug concentration was detected by ELISA. The main pharmacokinetic parameters were calculated, and C-T curve was plotted.

[4] = Effects on body weight and physiological characteristics of mice; details: 1 mg/kg s.c. once every three days, three times
Protocol: SPF grade Balb/c mice were purchased, with 3 mice in each group. Administration was started on the day of grouping. The test substance or PBS (negative control group) was administered subcutaneously at a dose of 1 mg/kg, once every three days, for a total of three times. The mice were weighed before each administration and three days after the third administration .

[5] = target: T2, IL-2αβγ triple receptor (Homo sapiens, UniProt P01589+P14784+P31785); experiment: STAT5 reporter gene assay, activation of IL-2αβγ triple receptor in 293EC18/αβγ/JAK3/STAT5 cells; type: cell-based; details: Example 3, Table 2 and Figure 3
T2 construct: Uniprot P01589 1Met-551Ile constructed into plasmid pcDNA3.1/zeo; Uniprot P14784 1Met-551Val constructed into plasmid pcDNA3.1(+); Uniprot P31785 1Met-551Thr was constructed into plasmid pcDNA3.1/zeo; expressed in transfected cells; host or cells: 293EC18 cells, transient co-transfection with pCMV/JAK3 and PGL4.52/STAT5RE
T2 sequence (P01589 22-272): T1 sequence (looked up) 1
T2 sequence (P14784 27-551): T1 sequence (looked up) 2
T2 sequence (P31785 23-369): T1 sequence (looked up) 3
Protocol: Since the binding of IL-2 to the β and γ subunits of its receptor induces STAT5 phosphorylation, which subsequently leads to dimerization and translocation into the nucleus to promote target gene transcription, this example evaluates the ability of the mutant IL-2 polypeptides to induce signaling through the IL-2 receptor by measuring STAT5 phosphorylation.
Adherent 293EC18 cells were cultured to about 90% confluence using conventional methods. After trypsin digestion, the cells were resuspended in cell culture medium to 4×10^5 cells/ml and 50 µl/well were added to two 96-well cell culture plates. After incubation at 37°C for 48 h, the supernatant was aspirated and fresh culture medium was added. […]
Each IL2 mutant was diluted 4-fold in a gradient manner using PBS buffer, with a total of 11 dilutions and a starting concentration of 65.2 nM. […] Bio-Lite Luciferase Assay System reagents that have been mixed and equilibrated to room temperature were added to the cell culture plates to be tested at 100 µl/well, placed on a microplate shaker at 450 rpm to mix for 2 minutes, then allowed to stand at room temperature for 3 minutes, and the chemiluminescence value was detected with an enzyme plate reader.
The logarithm of the final concentration of each IL-2 mutant sample was used as the X-axis, and the chemiluminescence detection results were used as the Y-axis for plotting. Data were analyzed using the four-parameter logistic regression model in GraphPad Prism 9. Table 2 EC50 values for the activation of the IL-2αβγ triple receptor by PEG-IL-2 mutants as determined by a reporter gene assay.
According to the method of Example 3, each polyethylene glycol-modified mutant obtained in this example was assessed for the binding preference to the IL2 receptors by a reporter assay. Table 4 EC50 values for the activation of the IL-2αβγ triple receptor by PEG-IL-2 mutants as determined by a reporter gene assay. […]

[6] = target: T1, IL-2Rαβγ triple receptor; experiment: cell-based or functional assay; remark: listed apart in the source
[7] = target: T1, IL-2Rαβγ triple receptor; experiment: cell-based or functional assay; remark: listed apart in the source

Q: What does the source list for “rh IL-2 (from UniProt P60568 21-153) (ligand)”?
A: Activation of IL-2αβγ receptor EC50 (STAT5 luciferase reporter gene assay) [1]: 0.00848 nM; Activation of IL-2αβγ triple receptor EC50 (STAT5 luciferase reporter gene assay) [1]: 0.00411 nM; EC50 for activation of the IL-2αβγ triple receptor (STAT5 luciferase reporter gene assay) [1]: 0.00543 nM

Q: Which EC50 [2] does the source give for “40K-1PEG-IL2-N88R-N77C: IL2-N88R-N77C with 40 kDa PEG conjugated to the cysteine at position 77” here?
A: Its EC50 is 38 nM.

Q: And the AUC inf [3]?
A: The AUC inf was 307.71336 ± 53.89144 µg·h/mL.

Q: What about the AUClast [3] of the same molecule?
A: Its AUClast is 306.70767 ± 53.98797 µg·h/mL.

Q: And the CL [3]?
A: The CL was 3.32±0.5.

Q: And the Cmax [3]?
A: Its Cmax is 6581.76 ± 1168.04 ng/mL.

Q: And the MRT [3]?
A: Its MRT is 31.57 ± 1.16 h.

Q: What about the T1/2 [3] of the same molecule?
A: The T1/2 was 11.33 ± 0.97 h.

Q: And the Tmax [3]?
A: The Tmax was 8 to 24 h.

Q: Which “toxic side effects on mice” value [4] does the source give for “80K-1PEG-IL2-N88R-D109C: IL-2 mutant N88R, D109C, conjugation site 109, PEG molecular weight 80kD” here?
A: Its value is “relatively obvious toxic side effects”.

Q: And the “visual observation of the mice” value [4]?
A: The value was “listless, had poor motility”.

Q: What about the “body weight compared with negative control” value ([4]; three days after the third dose) of the same molecule?
A: Its value is “significantly lower than that of the negative control”.

Q: With “80k-1PEG-IL2-D84C: IL-2 (C125S) mutant D84C with one 80k PEG-maleimide conjugated to cysteine 84” as the molecule, how does the “activation of the IL-2Rαβγ triple receptor compared with the control IL2-N88R” value [5] read?
A: Its value is “even stronger activation”.

B1: 20K-1PEG-IL2-N88R-D109C (ligand)
chain: APTSSSTKKTQLQLEHLLLDLQMILNGINNYKNPKLTRMLTFKFYMPKKATELKHLQCLEEELKPLEEVLNLAQSKNFHLRPRDLISXINVIVLELKGSETTFMCEYAXETATIVEFLNRWITFSQSIISTLT
modifications: not fully specified; one 20 kD PEG-maleimide conjugated to Cys 109
Q: For B1, which “EC50 for activation of the IL-2αβγ triple receptor (STAT5 luciferase reporter gene assay)” value [6] is on record?
A: The value was 0.0786 nM.

B2: 80K-1PEG-IL2-N88R-D109C (ligand)
chain: B1 chain
modifications: one 80 kD PEG-maleimide conjugated to Cys 109
Q: For B2, which “EC50 for activation of the IL-2αβγ triple receptor (STAT5 luciferase reporter gene assay)” value [6] is on record?
A: The value was 0.407 nM.

B3: 20K-1PEG-IL2-N88R-N77C (ligand)
chain: APTSSSTKKTQLQLEHLLLDLQMILNGINNYKNPKLTRMLTFKFYMPKKATELKHLQCLEEELKPLEEVLNLAQSKC([maleimide-PEG 20 kDa])FHLRPRDLISRINVIVLELKGSETTFMCEYADETATIVEFLNRWITFSQSIISTLT
modifications: not fully specified
Q: With B3 as the molecule, how does the “EC50 for activation of the IL-2αβγ triple receptor (STAT5 luciferase reporter gene assay)” value [6] read?
A: The value was 0.0705 nM.

B4: 20K-1PEG-IL2-N88R-N77C: IL-2 mutant N88R, N77C, conjugation site 77, PEG molecular weight 20kD (conjugate)
chain: APTSSSTKKTQLQLEHLLLDLQMILNGINNYKNPKLTRMLTFKFYMPKKATELKHLQCLEEELKPLEEVLNLAQSKC(PEG 20 kDa)FHLRPRDLISRINVIVLELKGSETTFMCEYADETATIVEFLNRWITFSQSIISTLT
Q: Which results are given for B4?
A: EC50 [2]: 6.14 nM; AUC inf [3]: 22.88236 ± 3.52254 µg·h/mL; AUClast [3]: 21.76228 ± 3.58639 µg·h/mL; CL [3]: 44.4±6.99; Cmax [3]: 1276.71 ± 273.3 ng/mL; MRT [3]: 11.68 ± 0.08 h; T1/2 [3]: 7.62 ± 0.57 h; Tmax [3]: 4 to 8 h

B5: 80k-1PEG-IL2-N88R-N33C (ligand)
chain: APTSSSTKKTQLQLEHLLLDLQMILNGINNYKC(PEG 80 kDa)PKLTRMLTFKFYMPKKATELKHLQCLEEELKPLEEVLNLAQSKNFHLRPRDLISRINVIVLELKGSETTFMCEYADETATIVEFLNRWITFSQSIISTLT
Q: With B5 as the molecule, how does the “EC50 for activation of the IL-2αβγ triple receptor (STAT5 luciferase reporter gene assay, 293EC18/αβγ/JAK3/STAT5 cells)” value [7] read?
A: The value was 0.00386 nM.

B6: 80k-1PEG-IL2-N88R-S75C (ligand)
chain: APTSSSTKKTQLQLEHLLLDLQMILNGINNYKNPKLTRMLTFKFYMPKKATELKHLQCLEEELKPLEEVLNLAQC(PEG 80 kDa)KNFHLRPRDLISRINVIVLELKGSETTFMCEYADETATIVEFLNRWITFSQSIISTLT
Q: For B6, which “EC50 for activation of the IL-2αβγ triple receptor (STAT5 luciferase reporter gene assay, 293EC18/αβγ/JAK3/STAT5 cells)” value [7] is on record?
A: The value was 1.26 nM.

B7: 80K-1PEG-IL2-N88R-N77C (ligand)
chain: APTSSSTKKTQLQLEHLLLDLQMILNGINNYKNPKLTRMLTFKFYMPKKATELKHLQCLEEELKPLEEVLNLAQSKC(PEG 80 kDa)FHLRPRDLISRINVIVLELKGSETTFMCEYADETATIVEFLNRWITFSQSIISTLT
Q: For B7, which “EC50 for activation of the IL-2αβγ triple receptor (STAT5 luciferase reporter gene assay)” value [6] is on record?
A: Its value is 0.246 nM.

Q: And the “EC50 for activation of the IL-2αβγ triple receptor (STAT5 luciferase reporter gene assay, 293EC18/αβγ/JAK3/STAT5 cells)” value [7]?
A: The value was 0.184 nM.
